Laboratory results: IntAct's records for PubMed 10409743

B1: Cell cycle serine/threonine-protein kinase hsk1 (Schizosaccharomyces pombe (strain ATCC 38366 / 972)), P50582 (parent)
chain: MAEAHITLSPKVTHEQQTDIDSECEITEVDDENVNENKSQEMIQDIPARDREEIENITRTFVELQENYRLIEKIGEGTFSSVYKAEDLHYGRYINDWDIQSEVLKESSFGKEKIPVNEDSRKPKYVAIKKIYATSSPARIYNELEILYLLRGSSVIAPLITALRNEDQVLVVLPYYEHTDFRQYYSTFSYRDMSIYFRCLFQAMQQTQTLGIIHRDIKPSNFLFDVRTKHGVLVDFGLAERYDGRQQSHSCRCTNSNAAELAHDFSIAQETSLGYIKNDTRPSKRANRAGTRGFRAPEVLFKCSSQSPKVDIWSAGVILLSFLTKRFPMFNSKDDVDALMEIACIFGKSEMRQCAALHGCTFETNVSTLTEKRVNFRKLILWASCGSASIYKEKLRHKPSQEERLCLDFLEKCLELDCNKRISAEEALDHDFLYLDNLAYEKKDDDTAFDNSFGETSFEKDEDLTAKHLSHILDFKEQEETDEPTSLSKRKRSIDEILPNDALQDGA
partner: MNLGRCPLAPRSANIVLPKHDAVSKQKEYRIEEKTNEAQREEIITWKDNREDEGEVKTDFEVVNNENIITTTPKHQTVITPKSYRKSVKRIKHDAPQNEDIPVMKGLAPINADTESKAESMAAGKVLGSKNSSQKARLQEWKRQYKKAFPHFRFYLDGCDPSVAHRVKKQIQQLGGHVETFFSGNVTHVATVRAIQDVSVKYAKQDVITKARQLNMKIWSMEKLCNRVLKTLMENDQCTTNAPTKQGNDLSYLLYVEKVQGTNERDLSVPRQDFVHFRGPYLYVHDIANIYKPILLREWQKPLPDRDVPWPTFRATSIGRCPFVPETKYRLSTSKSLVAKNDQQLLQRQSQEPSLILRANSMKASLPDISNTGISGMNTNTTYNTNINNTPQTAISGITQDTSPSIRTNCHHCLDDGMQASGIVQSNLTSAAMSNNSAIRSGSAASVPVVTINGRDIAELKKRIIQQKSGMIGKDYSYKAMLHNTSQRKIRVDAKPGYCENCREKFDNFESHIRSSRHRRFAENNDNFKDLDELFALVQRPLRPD

Variants of: B1
Conditions: with him1_schpo him1, O59836

effect of a mutation on the interaction | Variant
with no effect | K129A;K130S
